Data reported in the supplement of paper PMC9112550, “Optimization of the antimicrobial peptide Bac7 by deep mutational scanning” (BMC Biology, 2022).

These sequences were tested on Escherichia coli TOP10 (assay: shrunken log2 fold change of peptide-encoding DNA abundance (4.5 h post-induction vs induction); higher = less antimicrobial activity (less host growth inhibition)). Conditions: time post-induction: 4.5 h; library: site-saturation at positions 5, 18, 19, 20.
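Also: peptides expressed intracellularly from a pBAD plasmid library in pooled LB shake-flask culture, induced with 0.3% L-arabinose, DNA abundance read by NGS, three biological replicates, DESeq2 with apeglm shrinkage.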

| Sequence | shrunken log2 fold change |
| --- | --- |
| RRIRFRPPRLPRPRPRPEAHPRP | 0.171 |
| RRIRTRPPRLPRPRPRPLAFPRP | 2.19 |
| RRIRHRPPRLPRPRPRPSGHPRP | -0.172 |
| RRIRARPPRLPRPRPRPMNVPRP | -0.163 |
| RRIRYRPPRLPRPRPRPDVYPRP | -0.0212 |
| RRIRSRPPRLPRPRPRPVYCPRP | -0.138 |
| RRIRLRPPRLPRPRPRPAYRPRP | -0.0396 |
| RRIRSRPPRLPRPRPRPSNCPRP | -0.525 |
| RRIRDRPPRLPRPRPRPMNKPRP | -0.381 |
| RRIRIRPPRLPRPRPRPRCCPRP | -0.181 |
| RRIRTRPPRLPRPRPRPMILPRP | -0.0648 |
| RRIRDRPPRLPRPRPRPKIKPRP | 2.05 |
| RRIRYRPPRLPRPRPRPIMHPRP | -0.483 |
| RRIRDRPPRLPRPRPRPNWQPRP | 0.00408 |
| RRIRMRPPRLPRPRPRPNRVPRP | -0.144 |
| RRIRCRPPRLPRPRPRPTRHPRP | 0.161 |
| RRIRQRPPRLPRPRPRPLFSPRP | -0.258 |
| RRIRNRPPRLPRPRPRPVDFPRP | -0.262 |
| RRIRERPPRLPRPRPRPYNDPRP | 0.0352 |
| RRIRERPPRLPRPRPRPPHYPRP | -0.159 |
| RRIRERPPRLPRPRPRPDGPPRP | 0.115 |
| RRIRTRPPRLPRPRPRPHPEPRP | -0.0834 |
| RRIRMRPPRLPRPRPRPWHEPRP | -0.126 |
| RRIRLRPPRLPRPRPRPMCFPRP | -0.332 |
| RRIRWRPPRLPRPRPRPKLIPRP | -0.211 |

| Sequence | shrunken log2 fold change |
| --- | --- |
| RRIRLRPPRLPRPRPRPSNFPRP | -0.956 |
| RRIRTRPPRLPRPRPRPSEFPRP | -0.369 |
| RRIRKRPPRLPRPRPRPHHGPRP | -0.11 |
| RRIRIRPPRLPRPRPRPTASPRP | 0.132 |
| RRIRCRPPRLPRPRPRPSPEPRP | 0.3 |
| RRIRIRPPRLPRPRPRPFAAPRP | -0.258 |
| RRIRVRPPRLPRPRPRPMQCPRP | 0.0658 |
| RRIRSRPPRLPRPRPRPTKTPRP | -0.0829 |
| RRIRYRPPRLPRPRPRPDYHPRP | -0.0195 |
| RRIRTRPPRLPRPRPRPVMYPRP | 0.0131 |
| RRIRWRPPRLPRPRPRPKDLPRP | -0.0295 |
| RRIRWRPPRLPRPRPRPELIPRP | 1.56 |
| RRIRNRPPRLPRPRPRPVKTPRP | -0.0264 |
| RRIRARPPRLPRPRPRPDDGPRP | -0.078 |
| RRIRKRPPRLPRPRPRPAWRPRP | 1.18 |
| RRIRKRPPRLPRPRPRPWKKPRP | 0.0118 |
| RRIRLRPPRLPRPRPRPLMSPRP | -0.0608 |
| RRIRPRPPRLPRPRPRPSFWPRP | 0.129 |
| RRIRNRPPRLPRPRPRPLTQPRP | -0.328 |
| RRIRARPPRLPRPRPRPIIWPRP | -0.419 |
| RRIRTRPPRLPRPRPRPDMGPRP | -0.0558 |
| RRIRKRPPRLPRPRPRPSERPRP | 0.317 |
| RRIRGRPPRLPRPRPRPDKGPRP | 0.00725 |
| RRIRRRPPRLPRPRPRPNPKPRP | 0.172 |
| RRIRRRPPRLPRPRPRPNSQPRP | -0.154 |

| Sequence | shrunken log2 fold change |
| --- | --- |
| RRIRKRPPRLPRPRPRPKWWPRP | 0.238 |
| RRIRYRPPRLPRPRPRPIIEPRP | -0.643 |
| RRIRARPPRLPRPRPRPILGPRP | 0.0597 |
| RRIRTRPPRLPRPRPRPMFMPRP | 0.000513 |
| RRIRARPPRLPRPRPRPQDHPRP | -0.208 |
| RRIRSRPPRLPRPRPRPIERPRP | -0.23 |
| RRIRVRPPRLPRPRPRPLTDPRP | 0.0682 |
| RRIRSRPPRLPRPRPRPWRLPRP | 0.0899 |
| RRIRRRPPRLPRPRPRPRFLPRP | 0.15 |
| RRIRYRPPRLPRPRPRPMYLPRP | -0.0959 |
| RRIRERPPRLPRPRPRPIMGPRP | -0.21 |
| RRIRDRPPRLPRPRPRPEAIPRP | 0.0379 |
| RRIRERPPRLPRPRPRPCLVPRP | 0.0202 |
| RRIRFRPPRLPRPRPRPPKQPRP | 0.226 |
| RRIRGRPPRLPRPRPRPTGGPRP | 0.887 |
| RRIRCRPPRLPRPRPRPCTYPRP | -1.19 |
| RRIRERPPRLPRPRPRPFHSPRP | -0.256 |
| RRIRWRPPRLPRPRPRPMYPPRP | -0.245 |
| RRIRPRPPRLPRPRPRPHMLPRP | -0.226 |
| RRIRCRPPRLPRPRPRPMPYPRP | -0.189 |
| RRIRGRPPRLPRPRPRPKHPPRP | 0.608 |
| RRIRDRPPRLPRPRPRPEDMPRP | 1.81 |
| RRIRCRPPRLPRPRPRPCCLPRP | -0.35 |
| RRIRLRPPRLPRPRPRPNQPPRP | 0.0224 |
| RRIRGRPPRLPRPRPRPVFCPRP | 0.206 |

| Sequence | shrunken log2 fold change |
| --- | --- |
| RRIRPRPPRLPRPRPRPCHDPRP | -0.097 |
| RRIRRRPPRLPRPRPRPRCGPRP | 0.474 |
| RRIRRRPPRLPRPRPRPGMTPRP | 0.129 |
| RRIRARPPRLPRPRPRPTHKPRP | 0.577 |
| RRIRKRPPRLPRPRPRPYAQPRP | -0.00925 |
| RRIRIRPPRLPRPRPRPGADPRP | -0.193 |
| RRIRTRPPRLPRPRPRPWYRPRP | -0.23 |
| RRIRNRPPRLPRPRPRPNVWPRP | 0.0184 |
| RRIRSRPPRLPRPRPRPCEIPRP | -0.0377 |
| RRIRIRPPRLPRPRPRPHNMPRP | -0.898 |
| RRIRSRPPRLPRPRPRPSAWPRP | 0.555 |
| RRIRNRPPRLPRPRPRPAHHPRP | -0.0626 |
| RRIRCRPPRLPRPRPRPHNWPRP | -0.00871 |
| RRIRKRPPRLPRPRPRPTDCPRP | -0.0167 |
| RRIRIRPPRLPRPRPRPWLNPRP | -0.562 |
| RRIRYRPPRLPRPRPRPKCLPRP | -0.245 |
| RRIRCRPPRLPRPRPRPICNPRP | -0.579 |
| RRIRARPPRLPRPRPRPLICPRP | 0.341 |
| RRIRLRPPRLPRPRPRPKEDPRP | -0.184 |
| RRIRDRPPRLPRPRPRPADCPRP | -0.0601 |
| RRIRERPPRLPRPRPRPDTPPRP | -0.562 |
| RRIRHRPPRLPRPRPRPHIHPRP | -0.328 |
| RRIRMRPPRLPRPRPRPDETPRP | 0.103 |
| RRIRDRPPRLPRPRPRPSWEPRP | -0.00136 |
| RRIRMRPPRLPRPRPRPHCFPRP | -0.0715 |

| Sequence | shrunken log2 fold change |
| --- | --- |
| RRIRGRPPRLPRPRPRPQTAPRP | 0.205 |
| RRIRDRPPRLPRPRPRPFGDPRP | -0.0062 |
| RRIRMRPPRLPRPRPRPNCMPRP | 0.183 |
| RRIRARPPRLPRPRPRPWSQPRP | 0.149 |
| RRIRNRPPRLPRPRPRPNQHPRP | -0.116 |
| RRIRSRPPRLPRPRPRPMQCPRP | -0.0018 |
| RRIRWRPPRLPRPRPRPGMIPRP | -0.0827 |
| RRIRYRPPRLPRPRPRPFPFPRP | -0.271 |
| RRIRLRPPRLPRPRPRPSQHPRP | -0.169 |
| RRIRVRPPRLPRPRPRPVGQPRP | 0.0877 |
| RRIRYRPPRLPRPRPRPSWYPRP | -0.772 |
| RRIRWRPPRLPRPRPRPRVKPRP | 0.13 |
| RRIRFRPPRLPRPRPRPGAMPRP | 0.0505 |
| RRIRWRPPRLPRPRPRPKMIPRP | -0.22 |
| RRIRDRPPRLPRPRPRPFHTPRP | -0.569 |
| RRIRPRPPRLPRPRPRPWCCPRP | -0.0996 |
| RRIRVRPPRLPRPRPRPKCFPRP | -0.213 |
| RRIRCRPPRLPRPRPRPDIRPRP | 0.121 |
| RRIRHRPPRLPRPRPRPVPAPRP | -0.0665 |
| RRIRFRPPRLPRPRPRPSFGPRP | -0.112 |
| RRIRERPPRLPRPRPRPYIFPRP | -0.15 |
| RRIRARPPRLPRPRPRPQAWPRP | 0.376 |
| RRIRERPPRLPRPRPRPDTIPRP | -0.06 |
| RRIRFRPPRLPRPRPRPHLFPRP | -0.238 |
| RRIRHRPPRLPRPRPRPFNGPRP | -0.118 |

| Sequence | shrunken log2 fold change |
| --- | --- |
| RRIRYRPPRLPRPRPRPSGIPRP | -0.119 |
| RRIRDRPPRLPRPRPRPVIRPRP | -0.19 |
| RRIRYRPPRLPRPRPRPFMAPRP | -0.773 |
| RRIRKRPPRLPRPRPRPLPRPRP | 1.08 |
| RRIRKRPPRLPRPRPRPCMCPRP | -0.0956 |
| RRIRWRPPRLPRPRPRPEIQPRP | 0.685 |
| RRIRFRPPRLPRPRPRPQFSPRP | -0.401 |
| RRIRWRPPRLPRPRPRPLNDPRP | -0.281 |
| RRIRVRPPRLPRPRPRPFQLPRP | 0.142 |
| RRIRDRPPRLPRPRPRPQLPPRP | 0.186 |
| RRIRFRPPRLPRPRPRPWRYPRP | -0.161 |
| RRIRCRPPRLPRPRPRPQPHPRP | 0.067 |
| RRIRMRPPRLPRPRPRPRAYPRP | 0.426 |
| RRIRSRPPRLPRPRPRPEHAPRP | -0.0123 |
| RRIRSRPPRLPRPRPRPEIVPRP | 0.412 |
| RRIRSRPPRLPRPRPRPQYEPRP | -0.355 |
| RRIRQRPPRLPRPRPRPYSLPRP | -0.197 |
| RRIRKRPPRLPRPRPRPPGDPRP | 0.905 |
| RRIRSRPPRLPRPRPRPNDEPRP | -0.276 |
| RRIRWRPPRLPRPRPRPQHTPRP | 0.0837 |
| RRIRRRPPRLPRPRPRPDDLPRP | -0.128 |
| RRIRMRPPRLPRPRPRPLKPPRP | 0.528 |
| RRIRQRPPRLPRPRPRPKPDPRP | 0.313 |
| RRIRYRPPRLPRPRPRPHQNPRP | -0.527 |
| RRIRFRPPRLPRPRPRPHQFPRP | -0.343 |
